{"source": "paper PMC4938799", "about": "“LD Motif Recognition by Talin: Structure of the Talin-DLC1 Complex” (Structure(London, England:1993), 2016)", "molecules": {"B1": {"name": "GST-R8: GST-tagged talin R8, amino acids 1,453–1,580 (protein)", "chain": "NSQAGQQGLVEPTQFARANQAIQMACQSLGEPGCTQAQVLSAATIVAKHTSALCNSCRLASARTANPTAKRQFVQSAKEVANSTANLVKTIKALDGDFTEENRAQCRAATAPLLEAVDNLSAFASNPE", "modifications": "left off: GST, end not stated, kept"}}, "system": "GFP-DLC1", "assay": "GST pull-down of GFP-DLC1 in A549 cells", "type": "cell-based", "details": "A549 cell extracts, anti-DLC1 immunoblot, listed as wild-type GST-R8", "from_the_text": "However, as talin R8 interacts with RIAM ([Goult et al., 2013b]) and paxillin (shown here) in addition to DLC1, we used several approaches to evaluate whether binding of talin R8 to endogenous RIAM or paxillin might have contributed to the observed results. For RIAM, the level of expression in the cell lines used here varied from very low to undetectable. To detect RIAM protein in any of the cell extracts, we had to use an anti-RIAM immunoprecipitation step followed by anti-RIAM immunoblotting. Using these conditions, endogenous RIAM was detected in A549 and H358 cells, but not in 293T cells (Figure S5A).\nFigure S5, related to figure 6. […]\nform a detectable complex with GST-talin R8.\n(A) The expression of endogenous RIAM in cell lines. Cell extracts were subjected to immunoprecipitation followed by immunoblotting with anti-RIAM antibody.\n(B) A complex between GST-talin R8 and endogenous RIAM is undetectable in A549 cells.\nA549 cells were co-transfected with GFP-DLC1 and the GST constructs indicated. Cell extracts were subject to a glutathione bead pull down assay followed by immunoblotting with anti-GST and anti-RIAM antibodies on the same membrane (left). No complex between GST-talin R8 and RIAM could be detected. Under the same conditions, wild-type GST-R8 pulled-down the co-transfected GFP-DLC1; the immunoblot with anti-GST and anti-DLC1 on the same membrane is shown (right). […]", "note": "“Also recorded” adds a separate entry of the source."}
{"molecule": "B1", "values": [{"measurement": "binding of GFP-DLC1", "value": "pulled-down; also recorded: did bind GFP-DLC1"}]}
